Measured values reported in the nanobody polyreactivity screen of Harvey et al. (2022).

Assay: yeast display, Sf9 membrane polyspecificity reagent, FACS + sequencing; frameworks hold sequencing errors
Outline: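 A nanobody's polyreactivity label depends on the gate it was sorted from. Yeast display cells were stained with 10% biotinylated, detergent-solubilized Sf9 membrane reagent for 1 hour at 4 °C, enriched on streptavidin microbeads and sorted by FACS. The low and high (top ~1%) gates were set on anti-HA fluorescence for expression and streptavidin fluorescence for reagent binding.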

Sequence	polyreactivity (PSR sort gate)
QVQLVESGGGLVQAGGSLRLSCAASGSTFIFYAMGWYRQAPGKERELVASITSRAASTYYADSVKGRFTFSRDNAKNTVYFQMNSLKPEVTAVYYCAANFSYTLFWWSSFLLYVYWGQGTQVTVSS	low polyreactivity
QVQLVESGGGLVQAGGSLRLSCAASGSTFIFYTMGWYRQAPGKERELVAAITSNGGSTYYADSVKGRFTISRDNAKNTVYLQMNSLKPEDTAVYYCARVDRWRRYRYIFSGYDYWGQGTQVTVSS	high polyreactivity
QVQLVESGGGLVQAGGSLRLSCAASGSTFIGYAMGWYRQAPGKERELVAGIRWSGGRTYYADSVKGRFTISRDNAKNTVYLHMNSLKPEDTAVYYCNARFYASAKGYDYWGQGTQVTVSS	low polyreactivity
QVQLVESGGGLVQAGGSLRLSCAASGSTFIGYAMGWYRQAPGKERELVASISWGGGSTYYADSVKGRFTISRDNAKNTVYLQQNSLIPEDTAVYYCNTYYWFSGCPYDYWGQGTQVTVSS	low polyreactivity
QVQLVESGGGLVQAGGSLRLSCAASGSTFIGYTMGWYRQAPGKERELVAAISTSGARTYYADSVKGRFTISRDNAKNTVYLQMNSLKPEDTAVYYCAARAIYKSKYDYWGQGTQVTVSS	high polyreactivity
QVQLVESGGGLVQAGGSLRLSCAASGSTFILYAMGWYRQAPGKERELVAAITSRGGSTYYADSVKGRFTISRDNAKNTVYLQMNSLKPEDTAVYYCAADNGYIGPKPYFLAYPVGYDSWGQGTQVTVSS	low polyreactivity
QVQLVESGGGLVQAGGSLRLSCAASGSTFINYAMGWYRQAPGKERELVAVITSDDGSTYYADSVKGRFTISRDNAKNTVYLQMNSLKPEDTAVYYCAADYYDQRYRPGPWYDYWGQGTQVTVSS	low polyreactivity
QVQLVESGGGLVQAGGSLRLSCAASGSTFIPNAMGWYSQAPGKERELVAAISTGGSTNYADSVKGRFTISRDNAKNTVYLQMNSLKPEDTAVYYCNARRGYYNPGRRFYYWGQGTQVTVSS	low polyreactivity
QVQLVESGGGLVQAGGSLRLSCAASGSTFIRNAMGWYRQAPGKERELVAAITTDGSTDYADSVKGRFTISRDNAKNTVYLQMNSLKPEDTAVDYCNAEYRLDALSYDYLGQGTQVTVSS	low polyreactivity
QVQLVESGGGLVQAGGSLRLSCAASGSTFIRNTMGWYRQAPGKERELLAAISRSGVRTYYADSVKGRFTISRDNAKNTVYLQINSLKPEDTAVSYCAAVSSLSYSFPYDYWGQGTQVTVST	high polyreactivity
QVQLVESGGGLVQAGGSLRLSCAASGSTFIRYAMGWYRQAPGKERELVAAIRRTGASTYYADSVKGRFTISRDNAKNTVYLQMNSLKPEDTAVYYCAARYSIWSWNGLDYWGQGTQVTVSS	high polyreactivity
QVQLVESGGGLVQAGGSLRLSCAASGSTFISNTIGWYRQAPGKERELVAAISSGGDTSYADSVKGRFTISRDNAKNTVYLQMNILKPEDTAVYYCNVDTSATSYSSEYDYWGQGTQVTVSS	low polyreactivity
QVQLVESGGGLVQAGGSLRLSCAASGSTFISYAMGWYRPAPGKERELVAAISRNGGSTDYADSVKGRFTISRDNAKNSVYLQMNSLKPEHTAVYYCAAEYDTWWGGYDYWGQGTQVTVSS	high polyreactivity
QVQLVESGGGLVQAGGSLRLSCAASGSTFITNAMGWYRQAPGKERELVAAISSSGGSTYYADSVKGRFTISRDNAKNTVYLQMNSLKPEDTAVYYCNAVPYVPRFDYWGQGTQVTVSS	low polyreactivity
QVQLVESGGGLVQAGGSLRLSCAASGSTFITNIMGWYRQAPGKERELVAAISYIDGTTYYADSVKGRFTISRDNAKNTVYLQMNSLKPEDTAVYYCAAYPYLYPLRFEEYDHWGQGTQVTVSS	low polyreactivity
QVQLVESGGGLVQAGGSLRLSCAASGSTFITNSMGWYRQAPGKERELVAAITYSTGGTYYADSVKGRFTISRDNAKNTVYLQMNSLKPEDTAVYYCAALLYFFLYDYWGQGTQVSVSS	low polyreactivity
QVQLVESGGGLVQAGGSLRLSCAASGSTFITYAMGWSRQAPGKERELVAAISDSGGDTYYADSVKGRFTISRDYAKNTVYLQMISLNPEDTAVFYCAAEDDRYVYGDMNYWGQGTQVTVSS	low polyreactivity
QVQLVESGGGLVQAGGSLRLSCAASGSTFITYAMGWYRQAPGKERELVAAIRWSGGGTYYADSVKGRFTISRDTAKNTVYLQMNSLKPEDTAVYYCAADHFNYTTGRDYWGQGTQVTVSS	low polyreactivity
QVQLVESGGGLVQAGGSLRLSCAASGSTFIVYGMGWYRQAPGKEREFVAAITTRSGSTYYADSVKGRFTISRDNAKNTVYLQMNSLKPEDTAVYYCAAVPGTPRHDYWGQGTQVTVSS	high polyreactivity
QVQLVESGGGLVQAGGSLRLSCAASGSTFIYYAMGWYRQAPGKERELVAAISGSGASTYYADSVKGRFTISRDNAKNTVYLQMNSLKPEDTAVYYCAARSYGITDYGMYSWGQGTQVTVSS	high polyreactivity
QVQLVESGGGLVQAGGSLRLSCAASGSTFIYYAMGWYRQAPGKERELVAAISKRGGNTYYADSVKGRFTISRDNAKNTVYLQMNSLKPEDTAVYYCAARVYGTSRRYYSWGQGTQVTVSS	high polyreactivity

Sequence	polyreactivity (PSR sort gate)
QVQLVESGGGLVQAGGSLRLSCAASGSTFIYYARGWYRQAPGKERELVASISRSGGSPYYADSVKGRFTISRDNAKNTVYLQMNSLKPEATAVYDCARAYRSSFNYWGQGTQVTVSS	high polyreactivity
QVQLVESGGGLVQAGGSLRLSCAASGSTFKDNAMGWYIQAPGKERELVASITGRGGSTYYADSVKGRFTISRDNAKNTVYLHMNSLKPEDTAVYYCAARAYYGVYKSPYDYWGQGTQVTVSS	high polyreactivity
QVQLVESGGGLVQAGGSLRLSCAASGSTFKFYAMGWYRQAPGKERELVAAISGSSGSTYYADSVKGRFTISRDNAKNTVYLQMNSLKPEDTAVYYCNTQYSRYYTRYSAYDYWGQGTQVTVSS	low polyreactivity
QVQLVESGGGLVQAGGSLRLSCAASGSTFKHYAMGWYRQAPGKERELVAAISSGGSTKYADSVKGRFTISRDNAKNTVYLQMNSLKPEDTAVYYCAARSFFKMYYWGQGTQVTVSS	low polyreactivity
QVQLVESGGGLVQAGGSLRLSCAASGSTFKIYAMAWYRQAPGKERELVAAITGSGGSTYYADSVKGRFTISRDNAKNTVYLQMNSLKPEDTAVYYCAVDVYYYVATEFYEYDYWGQGTQVTVSS	high polyreactivity
QVQLVESGGGLVQAGGSLRLSCAASGSTFKIYAMGWYRQAPGKERELVAAITRSGGSTYYADSVKGRFTISRDNAKNTVYLQMNSLKPEDTAVYYCAASRFTSYGIDYDYWGQGTQVTVSS	high polyreactivity
QVQLVESGGGLVQAGGSLRLSCAASGSTFKPYAMGWYRQAPGKERELVAAITWTGGSTYYADSVKGRFTISRDNAKNTVYLEMNSLKPDDTAVYYCNAYLRWYITLLRYLAGGDYWGQGTQVTVSS	high polyreactivity
QVQLVESGGGLVQAGGSLRLSCAASGSTFKPYTMGWYRQAPGKERELVAGISSVDSTDYADSVKGRFTISRDNAKNTVYLQMNSLKPEDTAVYYCNKRKWPTFTYAMNYWGQGTQVSVSS	low polyreactivity
QVQLVESGGGLVQAGGSLRLSCAASGSTFKQYAMGLYRQAPGTERELVAVITWRGGRTYYADSVKGRFTISRDYAKNTVYLQMNSLKPEDTAVYYCAADYFSFIPGYDYWGQGTQVTVSS	high polyreactivity
QVQLVESGGGLVQAGGSLRLSCAASGSTFKQYAMGWYRQAPGKERELVAAISRSGSRTYYADSVKGRFTISRDNAKNTVYLQMNSLIPEDTAVYYCAAERRSTAGWLYDYWGQGTQVTVSS	high polyreactivity
QVQLVESGGGLVQAGGSLRLSCAASGSTFKRNAMGWYRQAPGIERELVAAISYSGGSTYYADSMKGRFTISRDNAKNTVYLQMNSLKPEDTAVYYCWGPGTQVTVSS	low polyreactivity
QVQLVESGGGLVQAGGSLRLSCAASGSTFKRYAMGWYRQAPGKEREFVAGISSRGSRTYYADSVKGRFTISRDNAKNTVYLQMNSLKPEDTAGYYCAVSGNHVSPPYGYWGQGTQVTVSS	high polyreactivity
QVQLVESGGGLVQAGGSLRLSCAASGSTFKRYAMGWYRQPPGKERELVASISSGGSTNYADSVKGRFTISRDNAKNSVYLQMNSLKPEDTAVYYCAAGYHVSTRGLIGHFDYWGQGTQVTVSS	high polyreactivity
QVQLVESGGGLVQAGGSLRLSCAASGSTFKRYVMGWYRQAPGKERELVAAISSRGGSTYYADSVKGRFTISRDNAKNTVYLQMNSLKPEDTAVYYCASANVRAEDYWGQGTQVTVSS	high polyreactivity
QVQLVESGGGLVQAGGSLRLSCAASGSTFKVNDMGWYRQAPGKERELVAAIDKSGGTTYYADSVKGRFTISRDNAKNTVYLQMNSLKPEDTAVYYCAADVIYEMDYWGQGTQVTVSS	low polyreactivity
QVQLVESGGGLVQAGGSLRLSCAASGSTFKWTAMGWYRPAPGKERELVAAITGSGTGTYYADSVKGRFTISRDNAKNTVYLQMNSLKPEDTAVYYCAAYVYGYKYYYWGQGTQVTVSS	high polyreactivity
QVQLVESGGGLVQAGGSLRLSCAASGSTFKWYAMGWYRQAPGKERELVAAITRGGSTSYADSVKGRFTISLDNAKNTVYLQMNSLKPEDTAVYYCAADYHYTKSMYYWGQGTQVTVSS	low polyreactivity
QVQLVESGGGLVQAGGSLRLSCAASGSTFKYNTMGWYRQAPGKESELVARISWSGTRTYYADSVKGRFTISRYNAKNTVYLQMNSLKPEDTAVYYCAKVSYFWSPYGYDSCGQGTQVTVSS	high polyreactivity
QVQLVESGGGLVQAGGSLRLSCAASGSTFKYYAMGWYRQAPGKEREFVAAITANGGRTYYADSVKGRFTISRDNAKNTVYLQMNSLKPEDTAVYYCAARTWYYYVYGYESWGQGTQVTVSS	high polyreactivity
QVQLVESGGGLVQAGGSLRLSCAASGSTFKYYAMGWYRQAPGKEREFVASINWSGVSTYYADSVKGRFTISRDNAKNTVYLQMNSLKPEDTAVYYCAARVRGKYDYWGQGTQVTVSS	high polyreactivity
